Measured values reported in PMC9804390.
Blank lines part the entries; values can stand above or below the substance they belong to.

Tests used:
Assay in all cases: SPR
[1] = target: LRP1 CR doublet CR.22-23 (human)
[2] = target: LRP1 CR doublet CR.27-28 (human)
LRP1 CR.6–7 doublet = target: LRP1 CR.6–7 doublet
LRP1 CR.6–8 triplet = target: LRP1 CR.6–8 triplet
LRP1 CR.7–8 doublet = LRP1 CR.7–8 doublet (UniProt Q07954)
[3] = target: LRP1 cluster II (CR.3–10) (UniProt Q07954)
[4] = target: LRP1 cluster IV (CR.21–31) (UniProt Q07954)
[5] = target: low density lipoprotein receptor-related protein 1 (LRP1) (UniProt Q07954)
[6] = target: LRP1 CR doublet CR.5-6 (human)

- Kd [1]: 0.172 µM
- Kd [2]: 0.165 µM
Substance: B domain-deleted factor VIII (recombinant, product C) (natural protein)

- Kd (LRP1 CR.6–7 doublet): 0.0652 µM
- Kd (LRP1 CR.6–8 triplet): 0.0284 µM
- Kd (LRP1 CR.7–8 doublet): 0.0815 µM
- Kd [3]: 0.0113 µM
- Kd [4]: 0.0196 µM
- Kd [5]: 0.0228 µM
Substance: Recombinant full-length FVIII (product A) (natural protein)

- Kd [6]: 0.131 µM
Substance: Recombinant full-length factor VIII (natural protein)
